# ± gives the uncertainty stated by the source.
# Assay: self-splicing fitness, log relative to wild type (ln ratio); higher = more splicing; Tetrahymena group I intron in knt gene, E. coli kanamycin selection, DiMSum; sequences stand for … in CUCUCU…GGAGGGAAAAGUUAUCAGGCAUGCACCUGGUAGCUAGUCUUUAAACCAAUAGAUUGCAUCGGUUUAAAAGGCAAGACCGUCAAAUUGCGGGAAAGGGGUCAACAGCCGUUCAGUACCAAGUCUCAGGGGAAACUUUGAGAUGGCCUUGCAAAGGGUAUGGUAAUAAGCUGACGGACAUGGUCCUAACCACGCAGCCAAGUCCUAAGUCAACAGAUCUUCUGUUGAUAUGGAUGCAGUUCACAGACUAAAUGUCGGUCGGGGAAGAUGUAUUCUUCUCAUAAGAUAUAGUCGGACCUCUCCUUAAUGGGAGCUAGCGGAUGAAGUGAUGCAACACUGGAGCCGCUGGGAACUAAUUUGUAUGCGAAAGUAUAUUGAUUAGUUUUGGAGUACUCGUGGUCG
# Outline: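 Library with all eight P1ex-region intron nucleotides randomised, intron inside the knt kanamycin-resistance gene on pET-22b(+), in E. coli BL21(DE3). Cells grew overnight at 37°C or 30°C on LB agar with or without 25 μg/mL kanamycin (plus 100 μg/mL carbenicillin, 50 μM IPTG, 0.2% rhamnose), in six replicate transformations. Pooled colonies were amplicon-sequenced on Illumina HiSeq 2500. DiMSum fitness is the error-weighted combination of wild-type-normalised replicate fold changes, kanamycin versus none.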
Sequence,self-splicing fitness (ln) (30 °C),self-splicing fitness (ln) (37 °C)
UCCUAGCAAUAUUACGUUUU,-3.41 ± 0.21,-2.69 ± 0.2
UCGAAGCAAUAUUACGAAUA,-1.96 ± 0.2,-1.76 ± 0.3
UCGAAGCAAUAUUACGACAC,-2.44 ± 0.41,-2.26 ± 0.38
UCGAAGCAAUAUUACGACUG,-1.11 ± 0.095,-0.774 ± 0.13
UCGAAGCAAUAUUACGAGGA,-3.21 ± 0.39,-1.19 ± 0.27
UCGAAGCAAUAUUACGAUAA,-2.17 ± 0.13,-1.13 ± 0.13
UCGAAGCAAUAUUACGCGGG,-2.18 ± 0.19,-1.68 ± 0.19
UCGAAGCAAUAUUACGGACG,-0.371 ± 0.13,0.158 ± 0.12
UCGAAGCAAUAUUACGGAUC,-3.14 ± 0.23,-2.64 ± 0.37
UCGAAGCAAUAUUACGGCCU,-2.16 ± 0.22,-1.77 ± 0.21
UCGAAGCAAUAUUACGGCUA,-2.29 ± 0.15,-1.41 ± 0.099
UCGAAGCAAUAUUACGGCUG,-1.98 ± 0.14,-0.494 ± 0.14
UCGAAGCAAUAUUACGGGUU,-4.87 ± 0.29,-1.47 ± 0.14
UCGAAGCAAUAUUACGGUAU,-3.58 ± 0.16,-1.73 ± 0.14
UCGAAGCAAUAUUACGGUUU,-3.83 ± 0.21,-2.72 ± 0.29
UCGAAGCAAUAUUACGUAAU,-3.88 ± 0.15,-1.62 ± 0.12
UCGAAGCAAUAUUACGUACG,-1.01 ± 0.082,0.00936 ± 0.11
UCGAAGCAAUAUUACGUCAA,-1.52 ± 0.11,-1.15 ± 0.1
UCGAAGCAAUAUUACGUCCA,-1.08 ± 0.13,-0.411 ± 0.14
UCGAAGCAAUAUUACGUCGG,-2.65 ± 0.17,-3.7 ± 0.31
UCGAAGCAAUAUUACGUGCG,-1.07 ± 0.086,-0.299 ± 0.1
UCGAAGCAAUAUUACGUGUC,,-2.37 ± 0.37
UCGAAGCAAUAUUACGUUCU,-1.72 ± 0.091,-1.53 ± 0.13
UCGCAGCAAUAUUACGACGC,-1.81 ± 0.48,
UCGCAGCAAUAUUACGAUUA,-1.06 ± 0.11,-0.805 ± 0.11

Sequence,self-splicing fitness (ln) (30 °C),self-splicing fitness (ln) (37 °C)
UCGCAGCAAUAUUACGCAAU,-2.15 ± 0.19,-2.92 ± 0.35
UCGCAGCAAUAUUACGCAUC,-2.52 ± 0.21,-1.57 ± 0.17
UCGCAGCAAUAUUACGCCGU,-3.48 ± 0.26,-2.99 ± 0.4
UCGCAGCAAUAUUACGCGAU,-2.55 ± 0.18,-2.97 ± 0.25
UCGCAGCAAUAUUACGCGGA,,-2.29 ± 0.25
UCGCAGCAAUAUUACGCUAA,-1.96 ± 0.14,-1.72 ± 0.15
UCGCAGCAAUAUUACGCUCG,-3.23 ± 0.28,-1.61 ± 0.2
UCGCAGCAAUAUUACGGACA,-1.38 ± 0.17,-1.83 ± 0.14
UCGCAGCAAUAUUACGGCAA,-0.188 ± 0.079,0.0609 ± 0.11
UCGCAGCAAUAUUACGGCCC,,-2.41 ± 0.41
UCGCAGCAAUAUUACGGGCU,-3.71 ± 0.17,-2.63 ± 0.16
UCGCAGCAAUAUUACGGUCG,-0.126 ± 0.094,0.0192 ± 0.14
UCGCAGCAAUAUUACGUCAU,-3.77 ± 0.14,-2.65 ± 0.13
UCGCAGCAAUAUUACGUCGA,-1.81 ± 0.13,-2.03 ± 0.18
UCGCAGCAAUAUUACGUCGU,-1.95 ± 0.081,-0.965 ± 0.096
UCGCAGCAAUAUUACGUGAU,-2.2 ± 0.25,-3.26 ± 0.35
UCGCAGCAAUAUUACGUGGC,-3.81 ± 0.42,-2.45 ± 0.31
UCGCAGCAAUAUUACGUGGU,-3.38 ± 0.13,-3.24 ± 0.19
UCGCAGCAAUAUUACGUGUU,-2.49 ± 0.092,-1.67 ± 0.11
UCGCAGCAAUAUUACGUUAU,-3.3 ± 0.26,-2.51 ± 0.24
UCGCAGCAAUAUUACGUUUG,-2.89 ± 0.099,-1.09 ± 0.11
UCGGAGCAAUAUUACGAAAC,-2.87 ± 0.28,
UCGGAGCAAUAUUACGAAUG,-4.16 ± 0.36,-2.15 ± 0.27
UCGGAGCAAUAUUACGAGCG,-2.48 ± 0.23,-0.586 ± 0.23
UCGGAGCAAUAUUACGAGUA,-3.11 ± 0.42,-1.89 ± 0.31

Sequence,self-splicing fitness (ln) (30 °C),self-splicing fitness (ln) (37 °C)
UCGGAGCAAUAUUACGAUAG,-3.29 ± 0.32,-2.83 ± 0.35
UCGGAGCAAUAUUACGCAAG,,-2.23 ± 0.43
UCGGAGCAAUAUUACGCAGG,-2.57 ± 0.44,-2.28 ± 0.43
UCGGAGCAAUAUUACGCUGG,-3.78 ± 0.46,-1.26 ± 0.17
UCGGAGCAAUAUUACGGAGA,-3.67 ± 0.21,-1.49 ± 0.14
UCGGAGCAAUAUUACGGCUU,-3.05 ± 0.32,-1.45 ± 0.35
UCGGAGCAAUAUUACGGGUG,-3.03 ± 0.24,-2.94 ± 0.2
UCGGAGCAAUAUUACGGGUU,-2.86 ± 0.41,
UCGGAGCAAUAUUACGGUAC,-3.19 ± 0.29,-3.59 ± 0.36
UCGGAGCAAUAUUACGGUUU,,-1.87 ± 0.34
UCGGAGCAAUAUUACGUACU,,-2.6 ± 0.34
UCGGAGCAAUAUUACGUAGU,,-0.551 ± 0.29
UCGGAGCAAUAUUACGUGAC,-1.95 ± 0.34,-2.14 ± 0.46
UCGGAGCAAUAUUACGUGGU,-3.59 ± 0.39,-1.72 ± 0.34
UCGUAGCAAUAUUACGAAGG,-3.63 ± 0.47,
UCGUAGCAAUAUUACGAAUG,-2.01 ± 0.29,
UCGUAGCAAUAUUACGACAU,-3.861 ± 0.035,-2.69 ± 0.043
UCGUAGCAAUAUUACGACUG,-1.02 ± 0.2,-2.28 ± 0.34
UCGUAGCAAUAUUACGAUAU,-3.38 ± 0.31,-1.85 ± 0.37
UCGUAGCAAUAUUACGAUGC,-4.1 ± 0.33,-2.27 ± 0.27
UCGUAGCAAUAUUACGCAAA,-3.4 ± 0.31,-1.09 ± 0.31
UCGUAGCAAUAUUACGCAUU,-3.24 ± 0.23,-1.84 ± 0.15
UCGUAGCAAUAUUACGCCUU,-2.21 ± 0.13,-0.619 ± 0.13
UCGUAGCAAUAUUACGGAAA,-3.38 ± 0.35,-2.72 ± 0.31
UCGUAGCAAUAUUACGGAUC,-3.32 ± 0.45,-2.85 ± 0.48

Sequence,self-splicing fitness (ln) (30 °C),self-splicing fitness (ln) (37 °C)
UCGUAGCAAUAUUACGGCAA,-2.52 ± 0.36,-0.888 ± 0.27
UCGUAGCAAUAUUACGGCGG,-2.41 ± 0.14,-0.883 ± 0.15
UCGUAGCAAUAUUACGGCGU,-3.46 ± 0.34,-1.6 ± 0.22
UCGUAGCAAUAUUACGGCUG,-3.29 ± 0.13,-1.38 ± 0.14
UCGUAGCAAUAUUACGGGCG,-2.12 ± 0.18,-1.11 ± 0.17
UCGUAGCAAUAUUACGUACA,-1.71 ± 0.24,-1.73 ± 0.26
UCGUAGCAAUAUUACGUACU,-2.04 ± 0.23,-1.27 ± 0.17
UCGUAGCAAUAUUACGUGCG,-2.44 ± 0.14,-0.347 ± 0.14
UCGUAGCAAUAUUACGUGGG,-3.54 ± 0.24,-3.92 ± 0.28
UCGUAGCAAUAUUACGUUAA,-1.59 ± 0.18,-1.16 ± 0.17
UCGUAGCAAUAUUACGUUCA,-1.39 ± 0.097,-0.421 ± 0.11
UCUAAGCAAUAUUACGACAC,-3.7 ± 0.18,-2.82 ± 0.17
UCUAAGCAAUAUUACGACUG,-0.955 ± 0.17,-0.205 ± 0.23
UCUAAGCAAUAUUACGAGUU,-2.94 ± 0.2,-3.27 ± 0.28
UCUAAGCAAUAUUACGAUAG,-1.15 ± 0.07,-0.499 ± 0.1
UCUAAGCAAUAUUACGAUAU,-3.99 ± 0.4,-2.61 ± 0.34
UCUAAGCAAUAUUACGAUCU,-3.07 ± 0.23,-2.08 ± 0.2
UCUAAGCAAUAUUACGAUGC,-3.03 ± 0.18,-2.28 ± 0.21
UCUAAGCAAUAUUACGCAUU,-2.92 ± 0.21,-2.83 ± 0.28
UCUAAGCAAUAUUACGCCUG,-1.6 ± 0.13,-1.14 ± 0.2
UCUAAGCAAUAUUACGCCUU,-3.44 ± 0.36,-2.32 ± 0.27
UCUAAGCAAUAUUACGCGUU,-4.04 ± 0.34,-2.77 ± 0.38
UCUAAGCAAUAUUACGGCUU,-4.01 ± 0.37,-1.22 ± 0.26
UCUAAGCAAUAUUACGGGCU,-4.19 ± 0.4,-1.84 ± 0.3

# — the supplement of paper PMC7877785
